Assay [1] has as its target CmbHLH2.1 (alternative splicing variant of CmbHLH2) from chrysanthemum 'Jimba', GAL4 DNA-binding domain fusion (Chrysanthemum x morifolium 'Jimba').
The target in assay [2] is CmbHLH2 from chrysanthemum 'Jimba', GAL4 DNA-binding domain fusion (Chrysanthemum x morifolium 'Jimba').

Where only a bound is given, the exact number is not on record here.

Chain of CmbHLH2 from chrysanthemum 'Jimba', GAL4 DNA-binding domain fusion (Chrysanthemum x morifolium 'Jimba') (main, as listed by the source): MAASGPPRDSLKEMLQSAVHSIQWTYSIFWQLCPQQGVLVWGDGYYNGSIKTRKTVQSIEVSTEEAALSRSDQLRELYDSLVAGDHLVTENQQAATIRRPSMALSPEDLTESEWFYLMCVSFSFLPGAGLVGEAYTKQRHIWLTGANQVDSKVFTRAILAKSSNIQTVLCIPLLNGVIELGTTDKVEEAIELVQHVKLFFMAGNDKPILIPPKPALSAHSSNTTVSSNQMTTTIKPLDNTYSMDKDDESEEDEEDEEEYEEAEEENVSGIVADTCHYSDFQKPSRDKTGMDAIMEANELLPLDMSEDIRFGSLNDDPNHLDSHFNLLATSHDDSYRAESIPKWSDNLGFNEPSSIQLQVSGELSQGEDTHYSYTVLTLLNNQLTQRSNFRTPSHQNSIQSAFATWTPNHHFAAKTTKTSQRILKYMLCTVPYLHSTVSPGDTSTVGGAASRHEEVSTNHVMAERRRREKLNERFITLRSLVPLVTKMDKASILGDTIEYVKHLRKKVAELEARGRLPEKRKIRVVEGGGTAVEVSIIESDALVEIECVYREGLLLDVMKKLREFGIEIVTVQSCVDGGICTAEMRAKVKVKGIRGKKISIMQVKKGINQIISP
Chain of CmbHLH2.1 (alternative splicing variant of CmbHLH2) from chrysanthemum 'Jimba', GAL4 DNA-binding domain fusion (Chrysanthemum x morifolium 'Jimba') (main, as listed by the source mutant): as the sequence (main, as listed by the source) above

“CmMYB6 (transcript20734) from chrysanthemum 'Jimba', GAL4 activation domain fusion (natural protein)”: the dual-luciferase assay in Nicotiana benthamiana leaves: fold-induced activation of the CmDFR promoter by CmMYB6 together with CmbHLH2.1, compared to empty vector in assay [1] was above 10 times. The substance further showed a dual-luciferase assay in Nicotiana benthamiana leaves: fold-induced activation of the CmDFR promoter by CmMYB6 together with CmbHLH2, compared to empty vector in assay [2] above 40 times.
